The values that follow come from US9745384B2, “Peptides useful for modulating histone demethylase function” (The Brigham and Women's Hospital, Inc., priority 2012, dated 2017).

What all share (format): biochemical
One data set concerns the target T1, LSD2 (Homo sapiens, UniProt Q8NB78).
T1 sequence (Q8NB78 1-822): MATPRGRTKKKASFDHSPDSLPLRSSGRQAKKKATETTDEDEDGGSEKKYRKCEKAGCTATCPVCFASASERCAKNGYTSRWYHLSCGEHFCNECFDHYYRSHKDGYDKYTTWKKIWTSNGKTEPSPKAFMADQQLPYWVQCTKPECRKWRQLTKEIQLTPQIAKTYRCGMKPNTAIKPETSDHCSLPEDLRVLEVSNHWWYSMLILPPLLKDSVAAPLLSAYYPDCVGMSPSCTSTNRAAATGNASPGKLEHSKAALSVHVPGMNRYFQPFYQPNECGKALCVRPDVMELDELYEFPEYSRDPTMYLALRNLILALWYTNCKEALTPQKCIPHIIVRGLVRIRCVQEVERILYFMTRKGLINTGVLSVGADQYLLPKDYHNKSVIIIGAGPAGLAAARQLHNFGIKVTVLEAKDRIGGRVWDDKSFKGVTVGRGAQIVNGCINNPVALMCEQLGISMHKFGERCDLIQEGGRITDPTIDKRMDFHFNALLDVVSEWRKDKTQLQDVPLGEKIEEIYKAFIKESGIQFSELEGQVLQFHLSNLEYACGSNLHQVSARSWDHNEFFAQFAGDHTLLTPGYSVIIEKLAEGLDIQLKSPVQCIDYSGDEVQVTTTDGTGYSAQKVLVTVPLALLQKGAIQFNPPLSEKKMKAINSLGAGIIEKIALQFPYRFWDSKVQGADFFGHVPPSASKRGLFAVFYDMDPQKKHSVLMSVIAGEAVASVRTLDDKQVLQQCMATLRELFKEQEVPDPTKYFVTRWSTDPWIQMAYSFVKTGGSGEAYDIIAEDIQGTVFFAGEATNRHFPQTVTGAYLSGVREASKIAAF
As to the kind of experiment: H3K4me2 peptide demethylation assay (MALDI-TOF). Also noted: 0.15 μM or 1.2 μM purified LSD2 (residues 51-822); His6 (cleaved yes); made in house; host or cells: Sf9 insect cells (baculovirus). The following applies: longer H3K4me2 peptide residues 1-44. On the procedure: FIGS. 12A-12F depict analysis of LSD2 demethylation activity and mutational analysis. […] Demethylation products were analyzed by MALDI-TOF mass spectrometry. 0.15 μM LSD2 can efficiently demethylate the longer H3K4me2 peptide (1-21), but has no detectable activity on the shorter histone peptide (1-15), demethylation of which requires high concentration (1.2 μM) of LSD2. […] It indicates the importance of histone residue 16-21 to LSD2 enzymatic activity and NPAC cofactor activity, supporting our model that NPAC assists enzyme-substrate interactions by creating a new binding site for H3 L20 in the LSD2-NPAC complex. FIG. 12C depicts LSD2 demethylation and NPAC cofactor activity on longer H3K4me2 peptide (1-44). […] The cofactor activity of wild-type NPAC was readily detected under the same conditions. […] It is noted that no obvious cofactor effect of F217A peptide or linker regions was detected in nucleosome and peptide demethylation assays (FIG. 6E and data not shown). […]
Histone peptides are purchased from Millipore, or custom synthesized. The purity of all peptides are >95% as determined by HPLC and mass spectrometry. […] The products were desalted through a C18 Ziptip (Millipore) and analyzed on a MALDI-TOF micro MX mass spectrometer (ABI 4700, Applied Biosystems). […]

For a further data set, the target named is T2, His-LSD2 (Homo sapiens, UniProt Q8NB78).
T2 construct: typically 0.5 μg full-length His-LSD2; made in house; host or cells: Sf9 insect cells
T2 sequence (Q8NB78 1-822): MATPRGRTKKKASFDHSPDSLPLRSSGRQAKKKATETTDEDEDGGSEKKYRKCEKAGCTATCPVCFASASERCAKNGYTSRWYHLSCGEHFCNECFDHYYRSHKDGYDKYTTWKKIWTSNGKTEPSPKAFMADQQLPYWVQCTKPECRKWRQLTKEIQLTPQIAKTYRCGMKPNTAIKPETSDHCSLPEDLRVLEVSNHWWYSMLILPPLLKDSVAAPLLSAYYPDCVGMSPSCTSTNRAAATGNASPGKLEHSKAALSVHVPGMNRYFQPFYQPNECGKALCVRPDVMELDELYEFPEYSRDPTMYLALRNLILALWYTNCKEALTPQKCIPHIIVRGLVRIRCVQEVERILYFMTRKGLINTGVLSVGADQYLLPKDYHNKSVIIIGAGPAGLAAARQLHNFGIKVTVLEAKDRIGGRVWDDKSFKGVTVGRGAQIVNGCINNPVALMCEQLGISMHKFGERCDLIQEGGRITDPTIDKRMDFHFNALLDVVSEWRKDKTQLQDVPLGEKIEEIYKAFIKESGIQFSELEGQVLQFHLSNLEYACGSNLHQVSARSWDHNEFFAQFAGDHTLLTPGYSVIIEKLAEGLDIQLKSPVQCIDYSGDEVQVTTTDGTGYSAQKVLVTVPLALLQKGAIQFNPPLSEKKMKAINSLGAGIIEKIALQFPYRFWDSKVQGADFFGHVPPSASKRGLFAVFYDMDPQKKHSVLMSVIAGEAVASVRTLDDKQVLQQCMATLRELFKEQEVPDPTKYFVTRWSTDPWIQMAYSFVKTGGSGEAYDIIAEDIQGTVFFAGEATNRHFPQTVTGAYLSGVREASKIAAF
Kind of data set: Nucleosome demethylation assay (NPAC cofactor activity for LSD2, immunoblot). The following applies: for Cofactor activity: stimulation of LSD2 demethylation of nucleosomal H3K4me2: threshold dosage of His-LSD2, nucleosomes purified from HeLa. As to the method: For nucleosome demethylation assays, typically 0.5 μg full-length His-LSD2, 1 μg NPAC protein or peptides, and 2 μg nucleosomes purified from HeLa were used, and demethylation efficiency was analyzed by SDS-PAGE electrophoresis and immunoblot using methylation specific anti-histone H3 antibodies as previously described (Shi et al. 2004).
For orientation: Immunoblotting shows a protein as a band on a membrane.

The target of another data set is LSD1 (Homo sapiens, UniProt O60341). As to the kind of experiment: LSD1-mediated nucleosome demethylation assay. The following applies: 2 μg LSD1 with 5 μg cofactor protein. On the procedure: FIG. 7A depicts the determination of the threshold dosage of purified LSD2 required for nucleosomal H3K4 demethylation. 2 μg of nucleosomes purified from HeLa were incubated with various amount of His-LSD2 proteins for 2 hours at 30° C. The demethylation reactions were analyzed by immunoblotting using indicated antibodies. […] 2 μg LSD1 in combination with 5 μg purified NPAC or CoREST protein was used for histone demethylase assays. […] Transfected cells are marked by arrows; cells shown significant reduction of H3K4me1 are marked by dotted circles. […] In contrast, coexpression of LSD2 and NPAC induces obvious global decrease of H3K4me1. […] FIG. 7D depicts immunofluorescence analyses of H3K9me2 demethylation in cells coexpressing LSD2 and full-length NPAC.

B1: NPAC: full-length human NPAC/GLYR1 (protein ID: Q49A26), recombinant, LSD2 cofactor (protein)
chain: MAAVSLRLGDLVWGKLGRYPPWPGKIVNPPKDLKKPRGKKCFFVKFFGTEDHAWIKVEQLKPYHAHKEEMIKINKGKRFQQAVDAVEEFLRRAKGKDQTSSHNSSDDKNRRNSSEERSRPNSGDEKRKLSLSEGKVKKNMGEGKKRVSSGSSERGSKSPLKRAQEQSPRKRGRPPKDEKDLTIPESSTVKGMMAGPMAAFKWQPTASEPVKDADPHFHHFLLSQTEKPAVCYQAITKKLKICEEETGSTSIQAADSTAVNGSITPTDKKIGFLGLGLMGSGIVSNLLKMGHTVTVWNRTAEKCDLFIQEGARLGRTPAEVVSTCDITFACVSDPKAAKDLVLGPSGVLQGIRPGKCYVDMSTVDADTVTELAQVIVSRGGRFLEAPVSGNQQLSNDGMLVILAAGDRGLYEDCSSCFQAMGKTSFFLGEVGNAAKMMLIVNMVQGSFMATIAEGLTLAHVTGQSQQTLLDILNQGQLASIFLDQKCQNILQGNFKPDFYLKYIQKDLRLAIALGDAVNHPTPMAAAANEVYKRAKALDQSDNDMSAVYRAYIH
Take B1: the “Cofactor activity: stimulation of LSD2 demethylation of H3K4me2 peptide” value in the data set with LSD2 was “can robustly stimulate LSD2 demethylation of the longer peptide (1-44)”. For the same molecule, the “Demethylase activity of NPAC itself” value with His-LSD2 (NPAC alone, without LSD2) was “no demethylase activity”. In addition, the “Cofactor activity: stimulation of LSD2 demethylation of nucleosomal H3K4me2” value was “stimulated LSD2 activity in a dose-dependent manner” with His-LSD2 (listed as His-NPAC) and “robust activity” with His-LSD2 (listed as wild-type NPAC). In the data set with LSD1, the “Stimulation of LSD1 nucleosome demethylation” value was “no stimulatory effect on nucleosome demethylation by LSD1”.
